According to patent US20160244529A1 (ROTTAPHARM BIOTECH S R L, published 2016):
“And” between values parts separate entries of the source, which are not always exact repeats. Equal entries are not always repeated.

How the values were obtained:
[1] = target: T1, human Ig1,2 TrkA (recombinant D4-D5 domain of human TrkA receptor) (human, UniProt P04629 191-392); experiment: SPR (Biacore X-100); scFv immobilised on CM5 chip, human Ig1,2 TrkA injected
T1 construct: also called hTrkA Ig1,2; TrkA Ig1,2
T1 chain: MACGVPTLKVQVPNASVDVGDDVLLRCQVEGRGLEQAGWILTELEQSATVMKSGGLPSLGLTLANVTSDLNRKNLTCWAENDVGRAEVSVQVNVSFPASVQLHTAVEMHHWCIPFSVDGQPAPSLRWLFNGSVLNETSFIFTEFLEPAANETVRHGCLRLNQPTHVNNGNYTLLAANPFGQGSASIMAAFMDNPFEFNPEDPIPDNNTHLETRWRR
Experimental: (§1) The antibodies were also shown to be specific for hTrkA and mTrkA by relative binding to the BIACore sensor chips coated with the appropriate antigen. Antibodies were immobilized by ammine coupling to Biosensor CM5 sensorchips (Pharmacia) according to the manufacturers instructions. Anti-TrkA scFv proteins were diluted at 20-50 μg/ml in suitable pre-concentration buffer (at least 2 pH unit below the pI of the scFv in order to get a net positive charge), chosen among the Acetate buffers. The scFvs were immobilized at 100 RU to get a low density immobilization. As binder, the recombinant protein consisting of D4-D5 domain of human and murine TrkA receptor (hTrkA Ig1,2 and mTrkA Ig1,2 respectively) were injected over the immobilized scFv with a contact time of 60 seconds and with a dissociation time of 400 seconds and the assay workflow placed 5 serial dilutions of the TrkA Ig1,2 (starting in the micromolar range and diluting 1:2 each time). The regeneration condition were mild (contact time 30 seconds, 10 mM Glycine pH2). On the basis of the resulting sensorgrams, the concentrations of TrkA Ig1,2 were adjusted to optimize, contact time, dissociation time and regeneration. Data were analysed by Bioevaluation Software (see results on Table II and Table III). The quality of the data fitting were checked by the value of Chi² and of the U-value.
(§2) We have carried out surface plasmon resonance (SPR) analyses to determine the binding kinetics of a panel of isolated anti-TrkA scFvs (SEQ ID NOs: 1, 2, 3, 4, 5, 6, 7, 8, 9, 10, 11, 12, 13, 14, 15 and 16). The scFvs were immobilized on a CM5 chip followed by injections at various concentration of human and murine Ig 1,2 TrkA (SEQ ID NO: 78) and mouse Ig1,2 TrkA (SEQ ID NO: 79).

[2] = target: T2, mouse Ig1,2 TrkA (recombinant D4-D5 domain of murine TrkA receptor) (mouse, UniProt Q3UFB7 193-413); experiment: SPR (Biacore X-100); scFv immobilised on CM5 chip, mouse Ig1,2 TrkA injected
T2 construct: also called mTrkA Ig1,2
T2 sequence (Q3UFB7 other isoform, or with tags, fused parts or gaps limits assumed): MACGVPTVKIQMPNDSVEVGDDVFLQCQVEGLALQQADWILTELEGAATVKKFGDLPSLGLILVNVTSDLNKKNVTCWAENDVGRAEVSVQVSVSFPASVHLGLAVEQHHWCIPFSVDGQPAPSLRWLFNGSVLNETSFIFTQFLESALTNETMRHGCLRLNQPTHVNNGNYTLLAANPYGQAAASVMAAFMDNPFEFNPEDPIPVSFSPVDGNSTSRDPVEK
Experimental: as §1, §2

[3] = target: T3, human TrkA receptor (native, on TF-1 cells) (human, UniProt P04629 33-796); experiment: chip-based flow cytometry (Agilent Bioanalyzer 2100) on TF-1 cells expressing human TrkA; scFv at 5 µg/ml per paragraph 159
T3 construct: also called TF1 expressing TrkA receptor; TF-1 cell line expressing human TrkA receptor
T3 sequence (P04629 33-796 limits assumed): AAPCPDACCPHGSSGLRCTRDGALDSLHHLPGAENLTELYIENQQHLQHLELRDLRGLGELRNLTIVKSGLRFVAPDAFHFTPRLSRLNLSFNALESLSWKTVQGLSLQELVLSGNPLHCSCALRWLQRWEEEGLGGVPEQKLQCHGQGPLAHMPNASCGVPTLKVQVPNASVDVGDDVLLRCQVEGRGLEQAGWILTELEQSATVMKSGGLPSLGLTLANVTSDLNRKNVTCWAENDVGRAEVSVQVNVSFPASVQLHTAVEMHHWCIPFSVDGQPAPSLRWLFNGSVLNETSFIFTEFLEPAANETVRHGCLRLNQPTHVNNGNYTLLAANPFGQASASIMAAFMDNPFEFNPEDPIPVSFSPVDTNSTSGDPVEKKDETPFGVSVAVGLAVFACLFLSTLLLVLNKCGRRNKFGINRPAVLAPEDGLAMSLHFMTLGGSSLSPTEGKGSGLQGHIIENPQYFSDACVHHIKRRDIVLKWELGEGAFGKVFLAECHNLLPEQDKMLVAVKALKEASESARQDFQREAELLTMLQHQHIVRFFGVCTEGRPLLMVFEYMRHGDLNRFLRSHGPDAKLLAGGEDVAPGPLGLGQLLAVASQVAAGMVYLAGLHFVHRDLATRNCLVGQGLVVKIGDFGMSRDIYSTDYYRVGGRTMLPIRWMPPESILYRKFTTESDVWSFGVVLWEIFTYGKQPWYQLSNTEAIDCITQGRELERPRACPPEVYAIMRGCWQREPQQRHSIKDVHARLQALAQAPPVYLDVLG
Experimental: FIG. 5. FACS analysis performed with Bioanalyzer 2100. A cell fluid chip-based fluorescent cytometric assay that runs on Bioanalyzer 2100 (Agilent) for fast characterization of small population cell phenotypes was assessed. The assay determines the expression of specific cell surface markers. In this experiment, the specificity of scFvs on TF-1 cell line expressing human TrkA receptor was assessed. Six samples can be analyzed on each chip in one automated process. Results were in good agreement with conventional flow cytometry in quantisation.
10⁶ cells/sample=tot: 6×10⁶ cells are first centrifuged at 350 g for 5 min at room temperature (RT) and wash with 12 ml of Staining Buffer (SB) at RT. The pellet was resuspended in 3 ml of SB at 4° C. and aliquot 0.5 ml of suspension in 1.5 ml conical tubes. Cells were centrifuged again at 350 g for 5 min at 4° C. and the pellet was resuspended in 1 ml HBSS at 4° C. 125 μl 16% p-formaldehyde (final conc 1.7%) was added into each tube and then the sample was incubated for 10 min at 4° C. on tube rotator. After 10 minutes, 75 μl of 10% detergent solution-Tween 20 (final conc 0.6%) was added and the samples were then incubated for 10 min at 4° C. on tube rotator. Samples were then washed once with FACS Buffer (0.8 ml/sample) at 4° C. and then centrifuged at 350 g for 5 min at 4° C. Cells were resuspended with 80 μl/sample of FACS Buffer. 20 μl of a 5× primary antibody solution were added (final concentration of scFvs is 5 μg/ml). After incubation for 1 hour at 4° C. on tube rotator samples were washed with FACS Buffer (0.5 ml/sample) at 4° C. and then centrifuged 5 min at 350 g at 4° C. Cells were resuspended with 80 μl/sample of FACS Buffer. 20 μl of a 5× secondary antibody solution were added. Final concentration of mouse anti-V5 antibody is 0.20 μg/ml. The samples were incubated for 1 hour at 4° C. on tube rotator. After incubation for 1 hour at 4° C. on tube rotator samples were washed with FACS Buffer (0.5 ml/sample) at 4° C. and then centrifuged 5 min at 350 g at 4° C. Cells were resuspended with 80 μl/sample of FACS Buffer. 20 μl of a 5× tertiary antibody solution were added. Final concentration of anti-mouse IgG-Cy5 is 4 μg/ml (1:250 diluted). The samples were incubated for 1 hour at 4° C. on tube rotator.

human p75 immunoadhesin = target: T4, human p75 immunoadhesin (human; Camelus dromedarius, UniProt P08138 29-250); experiment: specificity ELISA, antigens coated at 2 µg/mL, scFv at 50 ug/mL (upper panel) and 5 ug/mL (lower panel), OD 450 nm
T4 construct: extracellular domain; also called hp75-Fc; p75NTR immunoadhesin; not shown: Fc portion (immunoglobulin heavy chain constant region) of IgG2a camel antibody (Camelus dromedarius)
T4 sequence (looked up): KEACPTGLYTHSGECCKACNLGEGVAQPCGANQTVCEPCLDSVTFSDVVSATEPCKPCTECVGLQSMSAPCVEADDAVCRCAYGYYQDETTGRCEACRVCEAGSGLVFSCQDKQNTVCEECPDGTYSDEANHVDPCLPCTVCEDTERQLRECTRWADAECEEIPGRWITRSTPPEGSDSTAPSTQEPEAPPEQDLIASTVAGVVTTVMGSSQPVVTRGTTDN
Experimental: (§3) FIG. 3. Specificity ELISA of isolated anti-TrkA scFvs versus human TrkA immunoadhesin (hTrkA-Fc), human TrkB immunoadhesins (hTrkB-Fc), human TrkC immunoadhesins (hTrkC-Fc) and human p75 immunoadhesins (hp75-Fc). Human antigens were coated at 2 μg/mL. Anti-TrkA scFvs were used at 50 μg/mL (upper panel) and/or 5 μg/mL (lower panel). The mean absorbance at 450 nm of the experiments performed in duplicate wells is shown with SD indicated by the bars.

human TrkB immunoadhesin = target: T5, human TrkB immunoadhesin (human; Camelus dromedarius, UniProt Q16620 32-430); experiment: as above
T5 construct: extracellular domain; also called hTrkB-Fc; TrkB immunoadhesins; not shown: Fc portion (immunoglobulin heavy chain constant region) of IgG2a camel antibody (Camelus dromedarius)
T5 sequence (Q16620 32-430): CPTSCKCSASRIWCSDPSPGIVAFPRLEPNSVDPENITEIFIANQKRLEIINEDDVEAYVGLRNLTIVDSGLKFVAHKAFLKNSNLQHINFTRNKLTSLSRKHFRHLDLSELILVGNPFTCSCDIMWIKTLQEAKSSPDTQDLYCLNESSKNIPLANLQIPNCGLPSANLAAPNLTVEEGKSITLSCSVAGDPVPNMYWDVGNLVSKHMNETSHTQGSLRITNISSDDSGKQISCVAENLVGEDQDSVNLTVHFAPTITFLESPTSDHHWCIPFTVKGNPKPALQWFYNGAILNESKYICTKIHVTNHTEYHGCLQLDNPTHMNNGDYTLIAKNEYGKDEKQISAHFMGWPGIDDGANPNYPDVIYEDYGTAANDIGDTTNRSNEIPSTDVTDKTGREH
Experimental: as §3

human TrkC immunoadhesin = target: T6, human TrkC immunoadhesin (human; Camelus dromedarius, UniProt Q16288 32-429); experiment: as above
T6 construct: extracellular domain; also called hTrkC-Fc; TrkC immunoadhesins; not shown: Fc portion (immunoglobulin heavy chain constant region) of IgG2a camel antibody (Camelus dromedarius)
Experimental: as §3

[4] = target: T2, mouse Ig1,2 TrkA (recombinant D4-D5 …); experiment: SPR (Biacore X-100) kinetic analysis
[5] = target: T1, human Ig1,2 TrkA (recombinant D4-D5 …); experiment: SPR (Biacore X-100) kinetic analysis
[6] = target: T3, human TrkA receptor (native, on TF-1 …); experiment: cell-based or functional assay

B1: anti-TrkA scFv CRB0072 (scFv)
scFv: DIQMTQSPISLSATVGDRVTITCRASQSIGRYLNWYQQKPGKAPKLLIYGASSLESGVPSRFSGSGSGTVFTLTISGLQPEDFATYCCQQSHSTAWTFGQGTKVEIKSGGSTSGSGKPGSGEGSSGTEVQLVETGGGLVQPGSSLRLSCATSGFTFINYGVHWVRQPPGKGLEWVASIWYEGSNEKYADSVKGRFTISRDNSRYTLHLQLNSLRAEDTADYYCVRDRGTGDYRNSRFYYGMDVWGQGTTVTVSS
notes: From hSPLINT_09 selection
Kd [1]: 2.04 nM | koff [1]: 7.48e-06 s⁻¹ | kon [1]: 3680 M⁻¹ s⁻¹ | Kd [2]: 17 nM | koff [2]: 4.93e-05 s⁻¹ | kon [2]: 2910 M⁻¹ s⁻¹ | binding result [3]: binds | binding result (human p75 immunoadhesin): no binding (tested: 50 ug/mL) | binding result (human TrkB immunoadhesin): no binding (tested: 50 ug/mL) | binding result (human TrkC immunoadhesin): no binding (tested: 50 ug/mL)

B2: anti-TrkA scFv CRB0088 (scFv)
scFv: QPVLTQSPPASASLGASVKLTCTLSSGHSSYAIAWHQQQPEKGPRYLMKVNSDGSHNKGDGIPDRFSGSRSGAERYLTISSLHSEDEADYYCQTWGAGGVVFGGGTKLTVLSGGSTSGSGKPGSGEGSSGTEVQLLESGGGLVQPGGSLRLSCAASGFTFSDHYMDWVRQAPGKGLEWVGRIRNKANSYTTEYAASVKGRFTISRDDSKKTLYLQMTSLKTDDTALYYCARDLGASDAFDLWGQGTMVTVSS
notes: From hSPLINT_09 selection
Kd [1]: 1.16 nM | koff [1]: 3.2e-06 s⁻¹ | kon [1]: 2760 M⁻¹ s⁻¹ | Kd [2]: 38.5 nM | koff [2]: 0.000131 s⁻¹ | kon [2]: 3410 M⁻¹ s⁻¹ | binding result [3]: binds | binding result (human p75 immunoadhesin): no binding (tested: 50 ug/mL) | binding result (human TrkB immunoadhesin): no binding (tested: 50 ug/mL) | binding result (human TrkC immunoadhesin): no binding (tested: 50 ug/mL)

B3: anti-TrkA scFv CRB0022 (scFv)
scFv: DIVLTQSPALMSASPGEKVTMTCSASSSVSYMYWYQQKPRSSPKPWIYLTSNLASGVPARFSGSGSGTSYSLTISSMEAEDAATYYCQQWSSNPYTFGGRTRLEIKPSGGSTSGSGKPGSGEDSSGAQVQLQQSGAELVKPGASVELSCTASGFNIKDTYMHWVKQRPEQGLEWIGGIDPANGNTIYVPKFQGKATITADTSSNTAYLQLSSLTSEDTAVYYCARGGYDFDYAMDYWGQGTSVTVSS
notes: From mSPLINT selection
Kd [1]: 3.2 nM | koff [1]: 2.94e-05 s⁻¹ | kon [1]: 9190 M⁻¹ s⁻¹ | Kd [2]: 1.16 nM | koff [2]: 1.09e-05 s⁻¹ | kon [2]: 9430 M⁻¹ s⁻¹ | binding result [3]: binds | binding result (human p75 immunoadhesin): no binding (tested: 50 ug/mL) | binding result (human TrkB immunoadhesin): no binding (tested: 50 ug/mL) | binding result (human TrkC immunoadhesin): no binding (tested: 50 ug/mL)

B4: CRB0089_IgG4 (antibody, V domains shown)
VH: QVQLQESGPGLVKPSQTLSLTCAISGDSVSSNSAAWNWIRQSPSRGLEWLGRTFHRSRWYNEYPVSVRSRITINPDTSNNQFTLQLNSVTPDDTAVYYCARAPVAGLTFDIWGQGTMVTVSS
VL: QTVVTQEPSVSGAPGQRVTISCTGSSSIIGAGYEVHWYQHLPGTAPKLLIYDSINRPSGVPDRFSGSKSGTSASLAITGLQAEDEADYYCQSSAIFGGGTKLTVL
notes: Whole human IgG4 made in CHO-S cells; also called mAb CRB0089_IgG4; anti-TrkA CRB0089_IgG4
Kd [4]: 27.6 nM | koff [4]: 0.000136 s⁻¹ | kon [4]: 4950 M⁻¹ s⁻¹ | Kd [5]: 16.1 nM | koff [5]: 0.000103 s⁻¹ | kon [5]: 6420 M⁻¹ s⁻¹ | IC50 of inhibition of NGF-mediated TF1 cell proliferation (MTT assay) [6]: ~43 nM and ~40 nM
